This note sets out measurements from US20140199318A1.

The target in the experiment is patient IgG preparation from the immunoadsorption column regenerate of an α1-AR agAAB positive patient with mild vascular dementia. Briefly: competition ELISA: free loop1 peptide (0.3 nM to 5 µM) preincubated with patient IgG, binding to immobilised loop1 peptide read. In general terms: An ELISA detects its analyte on a solid surface through an enzyme-linked reagent.

Molecule LGYWAFGRVFCN [free (soluble) synthetic peptide corresponding to extracellular loop1 of the human α1-AR] registered an EC50 of 30 nM.

What is called EC50 is the midpoint of the concentration-response curve. The low end stands for a more potent agent, the high end for a less potent agent.
